The target in test [1] is HA of H7N3 A/Canada/444/04 (influenza A virus H7N3 A/Canada/444/04). Briefly: ELISA on recombinant or purified HA.
Test [2] deals with HA of H5N1 A/Viet Nam/1/05 (influenza A virus H5N1 A/Viet Nam/1/05). Briefly: ELISA on recombinant or purified HA.
For test [3], the target named is HA of H5N1 A/Viet Nam/1203/04 (influenza A virus H5N1 A/Viet Nam/1203/04). The experiment in a line: ELISA on recombinant or purified HA.
In test [4] the target is HA of H8N4 A/Alberta/357/84 (influenza A virus H8N4 A/Alberta/357/84). Briefly: ELISA on recombinant or purified HA.
The target in test [5] is HA of H6N5 A/shearwater/Australia/1/72 (influenza A virus H6N5 A/shearwater/Australia/1/72). The experiment in a line: ELISA on recombinant or purified HA.
The target of test [6] is HA of H9 A/HK/1073/99 (influenza A virus H9N2 A/Hong Kong/1073/99). The experiment in a line: ELISA on recombinant or purified HA.
Test [7] concerns the target HA of H10N4 A/mink/Sweded/3900/84 (influenza A virus H10N4 A/mink/Sweded/3900/84). Briefly: ELISA on recombinant or purified HA.
In test [8] the target is H5-HA (Table 7) (influenza A virus, H5 subtype, strain not stated). Briefly: ELISA on baculovirus-derived recombinant HA.
The target of test [9] is H7-HA (Table 7) (influenza A virus, H7 subtype, strain not stated). The experiment in a line: ELISA on baculovirus-derived recombinant HA.
Test [10] has as its target HA of H5N1 A/Viet Nam/1203/04 (influenza A virus H5N1 A/Viet Nam/1203/04). The experiment in a line: ELISA on HA.
The target in test [11] is HA of H9 A/HK/1073/99 (influenza A virus H9N2 A/Hong Kong/1073/99). Briefly: ELISA on HA.
Test [12] has as its target HA of H5N1 A/Viet Nam/1203/04 (influenza A virus H5N1 A/Viet Nam/1203/04). Briefly: cell-based or functional assay.

B1: FI6 variant 2 (antibody, V domains shown)
VH: QVQLVQSGGGVVQPGRSLRLSCVASGFTFSTYAMHWVRQAPGRGLEWVAVISYDGNYKYYADSVKGRFSISRDNSNNTLHLEMNTLRTEDTALYYCAKDSQLRSLLYFEWLSQGYFDPWGQGTLVTVTS
VL: DIQMTQSPDSLAVSLGARATINCKSSQSVTFNYKNYLAWYQQKPGQPPKVLIYWASARESGVPDRFSGSGSGTDFTLTISSLQAEDVAVYYCQQHYRTPPTFGQGTKVEIK
Take B1: the EC50 was found to be 0.033 µg/mL in test [1]; 0.01 µg/mL in test [2]; 0.014 µg/mL in test [3]; 0.033 µg/mL in [4]; 0.041 µg/mL in test [5]; 0.014 µg/mL in [6]. Further, the results for the EC50 in test [7], in test [8] and in test [9] were 0.09 µg/mL, 0.0145 µg/mL and 0.0314 µg/mL, respectively. Further, the Binding to HA by ELISA (% of subtype specific control antibodies) in test [10] was 73.7%; in test [11], 98.7%. Further, the Neutralization of HA-pseudotypes (IC90, µg/ml) in test [12] turned out to be 0.02 µg/mL.

B2: FI28 variant 1 (antibody, V domains shown)
VH: EVQLVESGGGAVQPGESLKLSCAASGFTFSNYGMHWVRQAPGKGLEWVAVISYDGSNKYYADSVKGRFTISRDNSKDTLYLQMNSLRAEDTALFYCAKERPLRLLRYFDWLSGGANDYWGQGTLVTVSS
VL: DIVMTQSPDSLAVSLGERATINCKSSQSVLYSSNNKNYLAWYQQKPGQPPKLLIDWASTRESGVPDRFSGSGSGTDFTLTISNLQVEDVAVYYCQQYYRSPSFGQGTKLEIK
On to B2, for which the Binding to HA by ELISA (% of subtype specific control antibodies) amounted to 46.3% in test [10] and 87.7% in test [11]. The Neutralization of HA-pseudotypes (IC90, µg/ml) in test [12] came out at 0.02 µg/mL.

The values are drawn from US20170204167A1.
